Here are results for four molecules from PMC3439536.

The data set concerns the target CR2 SCR1-4-BCCP (Homo sapiens, UniProt P20023 21-273). Kind of data set: SPR.

CR2 SCR1-4-BCCP, sequence (P20023 21-273): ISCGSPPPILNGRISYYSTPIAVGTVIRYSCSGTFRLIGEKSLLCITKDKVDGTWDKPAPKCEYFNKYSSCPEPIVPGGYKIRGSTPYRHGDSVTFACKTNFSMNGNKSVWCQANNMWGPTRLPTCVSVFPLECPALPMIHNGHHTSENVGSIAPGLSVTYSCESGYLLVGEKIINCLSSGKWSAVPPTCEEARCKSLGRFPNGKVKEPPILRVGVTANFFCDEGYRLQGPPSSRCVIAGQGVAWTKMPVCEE

B1: 15bp adenoviral E1a DNA (dsDNA)
DNA 1: TTCTATGCCAAACCT
DNA 2: AGGTTTGGCATAGAA
In turn, B1 came in with a Kd of 245 nM.

B2: 25bp adenoviral E1a DNA (dsDNA)
DNA 1: TTCTATGCCAAACCTTGTGCCGGAG
DNA 2: CTCCGGCACAAGGTTTGGCATAGAA
For B2, binding was put at a Kd of 358 nM.

B3: 50% CpG rich DNA (dsDNA)
DNA 1: TTCGATCGCACGCCCG
DNA 2: CGGGCGTGCGATCGAA
The molecule B3 returned a Kd of 509 nM.

B4: 16bp scrambled DNA (dsDNA)
DNA 1: ATGCATGCTGACTACG
DNA 2: CGTAGTCAGCATGCAT
B4: the affinity, expressed as Kd, was 266 nM.

Usually Kd stands for the equilibrium constant for the complex coming apart.
